Experimental data from publication PMC6475865.

Columns and labels:
[1] = system: Integrase IN_A (HIV-1 subtype A strain FSU-A); test: DRaCALA (nitrocellulose); settings: 20 mM HEPES pH 7.2, 10 mM DTT, 7.5 mM MgCl2, 25 C; DRaCALA: 5 nM DNA, 0-500 nM IN, 20 min
[2] = system: Integrase IN_CRF consensus (HIV-1 CRF63_02A1 (consensus of Siberian/Ural isolates)); test: DRaCALA (nitrocellulose); settings: 20 mM HEPES pH 7.2, 10 mM DTT, 7.5 mM MgCl2, 25 C; DRaCALA: 5 nM DNA, 0-500 nM IN, 20 min

“GTGTGGAAAATCTCTAGCAGT (double strand) [U5B/U5A duplex]” was tested. Which Kd [1] did it give?
Its Kd is 25 nM.

And the Kd [2]?
The Kd was 23 nM.
